{
  "source": "the Human Domainome abundance scans (Beltran et al. 2025)",
  "parents": {"B1": {"name": "Ankyrin-2, residues 3571 to 3650; numbered along this chain, Q01484 (parent)", "chain": "ERLAYIADHLGFSWTELARELDFTEEQIHQIRIENPNSLQDQSHALLKYWLERDGKHATDTNLVECLTKINRMDIVHLME"}},
  "note": "± gives the uncertainty stated by the source.",
  "data": [
    {"variants_of": "B1", "experiment": "abundance fitness (aPCA) (normalised: wild type 0, dead -1); higher = more abundant; growth selection in yeast, the domain comes from the species named", "conditions": "Homo sapiens", "values": [
      {"variant": "ERLAYIADHLGFSWTELARELDFTEEQIHQIRIENPNSLQDQSHALLKYWLERDGKHATDTNLVECLTCINRMDIVHLME", "note": "[K69C]", "abundance fitness": "-0.094 ± 0.1"},
      {"variant": "ERLAYIADHLGFSWTELARELDFTEEQIHQIRIENPNSLQDQSHALLKYWLERDGKHATDTNLVECLTDINRMDIVHLME", "note": "[K69D]", "abundance fitness": "-0.094 ± 0.1"},
      {"variant": "ERLAYIADHLGFSWTELARELDFTEEQIHQIRIENPNSLQDQSHALLKYWLERDGKHATDTNLVECLTAINRMDIVHLME", "note": "[K69A]", "abundance fitness": "0.001 ± 0.041"},
      {"variant": "ERLAYIADHLGFSWTELARELDFTEEQIHQIRIENPNSLQDQSHALLKYWLERDGKHATDTNLVEWLTKINRMDIVHLME", "note": "[C66W]", "abundance fitness": "-0.058 ± 0.064"},
      {"variant": "ERLAYIADHLGFSWTELARELDFTEEQIHQIRIENPNSLQDQSHALLKYWLERDGKHATDTNLVEVLTKINRMDIVHLME", "note": "[C66V]", "abundance fitness": "0.034 ± 0.052"},
      {"variant": "ERLAYIADHLGFSWTELARELDFTEEQIHQIRIENPNSLQDQSHALLKYWLERDGKHATDTNLVESLTKINRMDIVHLME", "note": "[C66S]", "abundance fitness": "-0.013 ± 0.056"},
      {"variant": "ERLAYIADHLGFSWTELARELDFTEEQIHQIRIENPNSLQDQSHALLKYWLERDGKHATDTNLVETLTKINRMDIVHLME", "note": "[C66T]", "abundance fitness": "-0.078 ± 0.065"},
      {"variant": "ERLAYIADHLGFSWTELARELDFTEEQIHQIRIENPNSLQDQSHALLKYWLERDGKHATDTNLVEYLTKINRMDIVHLME", "note": "[C66Y]", "abundance fitness": "-0.27 ± 0.11"},
      {"variant": "ERLAYIADHLGFSWTELARELDFTEEQIHQIRIENPNSLQDQSHALLKYWLERDGKHATDTNLVECLFKINRMDIVHLME", "note": "[T68F]", "abundance fitness": "0.041 ± 0.15"},
      {"variant": "ERLAYIADHLGFSWTELARELDFTEEQIHQIRIENPNSLQDQSHALLKYWLERDGKHATDTNLVECLMKINRMDIVHLME", "note": "[T68M]", "abundance fitness": "-0.102 ± 0.095"},
      {"variant": "ERLAYIADHLGFSWTELARELDFTEEQIHQIRIENPNSLQDQSHALLKYWLERDGKHATDTNLVECLPKINRMDIVHLME", "note": "[T68P]", "abundance fitness": "-0.098 ± 0.046"},
      {"variant": "ERLAYIADHLGFSWTELARELDFTEEQIHQIRIENPNSLQDQSHALLKYWLERDGKHATDTNLVECLSKINRMDIVHLME", "note": "[T68S]", "abundance fitness": "-0.147 ± 0.087"},
      {"variant": "ERLAYIADHLGFSWTELARELDFTEEQIHQIRIENPNSLQDQSHALLKYWLERDGKHATDTNLVECLGKINRMDIVHLME", "note": "[T68G]", "abundance fitness": "-0.039 ± 0.077"},
      {"variant": "ERLAYIADHLGFSWTELARELDFTEEQIHQIRIENPNSLQDQSHALLKYWLERDGKHATDTNLVECLEKINRMDIVHLME", "note": "[T68E]", "abundance fitness": "0.047 ± 0.11"},
      {"variant": "ERLAYIADHLGFSWTELARELDFTEEQIHQIRIENPNSLQDQSHALLKYWLERDGKHATDTNLVECLAKINRMDIVHLME", "note": "[T68A]", "abundance fitness": "-0.057 ± 0.13"},
      {"variant": "ERLAYIADHLGFSWTELARELDFTEEQIHQIRIENPNSLQDQSHALLKYWLERDGKHATDTNLVECLRKINRMDIVHLME", "note": "[T68R]", "abundance fitness": "-0.071 ± 0.051"},
      {"variant": "ERLAYIADHLGFSWTELARELDFTEEQIHQIRIENPNSLQDQSHALLKYWLERDGKHATDTNLVECLNKINRMDIVHLME", "note": "[T68N]", "abundance fitness": "-0.231 ± 0.15"},
      {"variant": "ERLAYIADHLGFSWTELARELDFTEEQIHQIRIENPNSLQDQSHALLKYWLERDGKHATDTNLVECLKKINRMDIVHLME", "note": "[T68K]", "abundance fitness": "-0.044 ± 0.088"},
      {"variant": "ERLAYIADHLGFSWTELARELDFTEEQIHQIRIENPNSLQDQSHALLKYWLERDGKHATDTNLVECLHKINRMDIVHLME", "note": "[T68H]", "abundance fitness": "0.068 ± 0.13"},
      {"variant": "ERLAYIADHLGFSWTELARELDFTEEQIHQIRIENPNSLQDQSHALLKYWLERDGKHATDTNLVECLVKINRMDIVHLME", "note": "[T68V]", "abundance fitness": "-0.001 ± 0.08"},
      {"variant": "ERLAYIADHLGFSWTELARELDFTEEQIHQIRIENPNSLQDQSHALLKYWLERDGKHATDTNLVECLYKINRMDIVHLME", "note": "[T68Y]", "abundance fitness": "-0.136 ± 0.17"},
      {"variant": "ERLAYIADHLGFSWTELARELDFTEEQIHQIRIENPNSLQDQSHALLKYWLERDGKHATDTNLVECLIKINRMDIVHLME", "note": "[T68I]", "abundance fitness": "-0.122 ± 0.29"},
      {"variant": "ERLAYIADHLGFSWTELARELDFTEEQIHQIRIENPNSLQDQSHALLKYWLERDGKHATDTNLVECATKINRMDIVHLME", "note": "[L67A]", "abundance fitness": "-0.224 ± 0.094"},
      {"variant": "ERLAYIADHLGFSWTELARELDFTEEQIHQIRIENPNSLQDQSHALLKYWLERDGKHATDTNLVECITKINRMDIVHLME", "note": "[L67I]", "abundance fitness": "-0.199 ± 0.13"},
      {"variant": "ERLAYIADHLGFSWTELARELDFTEEQIHQIRIENPNSLQDQSHALLKYWLERDGKHATDTNLVECCTKINRMDIVHLME", "note": "[L67C]", "abundance fitness": "-0.153 ± 0.13"},
      {"variant": "ERLAYIADHLGFSWTELARELDFTEEQIHQIRIENPNSLQDQSHALLKYWLERDGKHATDTNLVECMTKINRMDIVHLME", "note": "[L67M]", "abundance fitness": "-0.249 ± 0.1"},
      {"variant": "ERLAYIADHLGFSWTELARELDFTEEQIHQIRIENPNSLQDQSHALLKYWLERDGKHATDTNLVECETKINRMDIVHLME", "note": "[L67E]", "abundance fitness": "-0.643 ± 0.22"},
      {"variant": "ERLAYIADHLGFSWTELARELDFTEEQIHQIRIENPNSLQDQSHALLKYWLERDGKHATDTNLVECGTKINRMDIVHLME", "note": "[L67G]", "abundance fitness": "-0.84 ± 0.12"},
      {"variant": "ERLAYIADHLGFSWTELARELDFTEEQIHQIRIENPNSLQDQSHALLKYWLERDGKHATDTNLVECHTKINRMDIVHLME", "note": "[L67H]", "abundance fitness": "-0.838 ± 0.5"},
      {"variant": "ERLAYIADHLGFSWTELARELDFTEEQIHQIRIENPNSLQDQSHALLKYWLERDGKHATDTNLVECTTKINRMDIVHLME", "note": "[L67T]", "abundance fitness": "-1.16 ± 0.34"},
      {"variant": "ERLAYIADHLGFSWTELARELDFTEEQIHQIRIENPNSLQDQSHALLKYWLERDGKHATDTNLVECWTKINRMDIVHLME", "note": "[L67W]", "abundance fitness": "-0.832 ± 0.19"},
      {"variant": "ERLAYIADHLGFSWTELARELDFTEEQIHQIRIENPNSLQDQSHALLKYWLERDGKHATDTNLVECRTKINRMDIVHLME", "note": "[L67R]", "abundance fitness": "-1.09 ± 0.13"},
      {"variant": "ERLAYIADHLGFSWTELARELDFTEEQIHQIRIENPNSLQDQSHALLKYWLERDGKHATDTNLVECYTKINRMDIVHLME", "note": "[L67Y]", "abundance fitness": "-0.754 ± 0.39"},
      {"variant": "ERLAYIADHLGFSWTELARELDFTEEQIHQIRIENPNSLQDQSHALLKYWLERDGKHATDTNLVECPTKINRMDIVHLME", "note": "[L67P]", "abundance fitness": "-0.875 ± 0.16"},
      {"variant": "ERLAYIADHLGFSWTELARELDFTEEQIHQIRIENPNSLQDQSHALLKYWLERDGKHATDTNLVECFTKINRMDIVHLME", "note": "[L67F]", "abundance fitness": "-0.591 ± 0.23"}
    ]}
  ]
}
